# Residue numbers refer to the chain shown, from its start. Like-named read-outs stand apart in the source and are kept apart here. Numbered stars: 1 amine (or outer) side, 2 acyl side, 3 side chain; on linkers, the order of the positions; unused ones are H or OH. Side chains are listed from the residue outwards. Ends that are not written are not given here. Peptide text beside a SMILES is read from it. * marks the point of attachment. γGlu = O=C(O)[C@H](CCC(=O)[*:2])N[*:1]; Palmitoyl = CCCCCCCCCCCCCCCC(=O)*
# T1: mouse GLP-1 receptor (mouse, UniProt O35659 22-463)
# T1 sequence (looked up): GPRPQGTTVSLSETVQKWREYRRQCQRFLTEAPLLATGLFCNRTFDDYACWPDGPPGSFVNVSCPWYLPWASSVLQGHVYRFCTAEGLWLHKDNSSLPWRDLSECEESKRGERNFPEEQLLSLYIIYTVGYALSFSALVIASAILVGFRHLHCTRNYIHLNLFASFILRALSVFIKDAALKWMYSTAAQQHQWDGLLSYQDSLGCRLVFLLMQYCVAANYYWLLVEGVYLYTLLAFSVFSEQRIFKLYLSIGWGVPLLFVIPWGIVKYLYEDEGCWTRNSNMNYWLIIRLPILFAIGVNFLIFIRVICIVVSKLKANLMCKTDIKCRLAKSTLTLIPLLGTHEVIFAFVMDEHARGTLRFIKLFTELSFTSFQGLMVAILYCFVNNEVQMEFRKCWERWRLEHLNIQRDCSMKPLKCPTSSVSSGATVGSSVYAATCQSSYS
# T2: human glucose-dependent insulinotropic peptide (gastric inhibitory polypeptide) receptor (human, UniProt P48546 22-466)
# T2 sequence (looked up): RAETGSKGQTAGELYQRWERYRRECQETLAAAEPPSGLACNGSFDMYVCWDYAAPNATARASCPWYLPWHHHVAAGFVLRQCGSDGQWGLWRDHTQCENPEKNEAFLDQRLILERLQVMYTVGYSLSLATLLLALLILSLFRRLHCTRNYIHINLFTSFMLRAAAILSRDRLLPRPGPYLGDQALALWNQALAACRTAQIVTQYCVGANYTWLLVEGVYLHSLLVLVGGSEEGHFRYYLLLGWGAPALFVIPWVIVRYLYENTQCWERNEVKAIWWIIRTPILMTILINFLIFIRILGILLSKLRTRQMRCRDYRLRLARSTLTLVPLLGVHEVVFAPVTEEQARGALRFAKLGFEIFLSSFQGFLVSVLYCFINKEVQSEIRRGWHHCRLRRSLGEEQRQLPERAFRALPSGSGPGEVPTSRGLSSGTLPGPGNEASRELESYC
# B1: G796 (peptide)
# peptide: HSQGTFTSDKSSYLDSRRARDFVAWLEAGG
# modifications: X10 = K(gE-palm); C-terminal amide
# B2: G931 (peptide)
# peptide: HSQGTFTSDYSKK([γGlu-Palmitoyl])LDSERARDFVAWLVAGG-OH
# B3: g321 (peptide)
# peptide: HSQGTFTSDYSKYLDSRRAQDFVQWLVAGGKNNRNNIAK-NH2
# B4: G973 (peptide)
# peptide: B1 peptide with K10X, R18S
# modifications: X10 = K(gE-palm); C-terminal acid
# B5: g327 (peptide)
# peptide: HSQGTFTSDYSKYLDSRRAQDFVQWLVAGGGGGGK([γGlu-Palmitoyl])-NH2
# modifications: N-terminus assumed
# SMILES: CCCCCCCCCCCCCCCC(=O)N[C@@H](CCC(=O)NCCCC[C@H](NC(=O)CNC(=O)CNC(=O)CNC(=O)CNC(=O)CNC(=O)CNC(=O)[C@H](C)NC(=O)[C@@H](NC(=O)[C@H](CC(C)C)NC(=O)[C@H](Cc1c[nH]c2ccccc12)NC(=O)[C@H](CCC(N)=O)NC(=O)[C@@H](NC(=O)[C@H](Cc1ccccc1)NC(=O)[C@H](CC(=O)O)NC(=O)[C@H](CCC(N)=O)NC(=O)[C@H](C)NC(=O)[C@H](CCCNC(=N)N)NC(=O)[C@H](CCCNC(=N)N)NC(=O)[C@H](CO)NC(=O)[C@H](CC(=O)O)NC(=O)[C@H](CC(C)C)NC(=O)[C@H](Cc1ccc(O)cc1)NC(=O)[C@H](CCCCN)NC(=O)[C@H](CO)NC(=O)[C@H](Cc1ccc(O)cc1)NC(=O)[C@H](CC(=O)O)NC(=O)[C@H](CO)NC(=O)[C@@H](NC(=O)[C@H](Cc1ccccc1)NC(=O)[C@@H](NC(=O)CNC(=O)[C@H](CCC(N)=O)NC(=O)[C@H](CO)NC(=O)[C@@H](N)Cc1c[nH]cn1)[C@@H](C)O)[C@@H](C)O)C(C)C)C(C)C)C(N)=O)C(=O)O
# B6: G849 (peptide)
# peptide: B1 peptide with S12R, R18S
# modifications: X10 = K(gE-palm); C-terminal amide
# B7: G812 (peptide)
# peptide: HSQGTFTSDKSKYLEGQAAKEFIAWLEKGR
# modifications: X10 = K(gE-palm); C-terminal amide
# B8: G934 (peptide)
# peptide: HSQGTFTSDK([γGlu-Palmitoyl])SKYLEGQAAKEFIAWLEKGR-OH
# B9: g322 (peptide)
# peptide: HSQGTFTSDYSKYLDSRRAQDFVQWLVAGGKNNRNNIAK(Palmitoyl)-NH2
# modifications: N-terminus assumed
# SMILES: CCCCCCCCCCCCCCCC(=O)NCCCC[C@H](NC(=O)[C@H](C)NC(=O)[C@@H](NC(=O)[C@H](CC(N)=O)NC(=O)[C@H](CC(N)=O)NC(=O)[C@H](CCCNC(=N)N)NC(=O)[C@H](CC(N)=O)NC(=O)[C@H](CC(N)=O)NC(=O)[C@H](CCCCN)NC(=O)CNC(=O)CNC(=O)[C@H](C)NC(=O)[C@@H](NC(=O)[C@H](CC(C)C)NC(=O)[C@H](Cc1c[nH]c2ccccc12)NC(=O)[C@H](CCC(N)=O)NC(=O)[C@@H](NC(=O)[C@H](Cc1ccccc1)NC(=O)[C@H](CC(=O)O)NC(=O)[C@H](CCC(N)=O)NC(=O)[C@H](C)NC(=O)[C@H](CCCNC(=N)N)NC(=O)[C@H](CCCNC(=N)N)NC(=O)[C@H](CO)NC(=O)[C@H](CC(=O)O)NC(=O)[C@H](CC(C)C)NC(=O)[C@H](Cc1ccc(O)cc1)NC(=O)[C@H](CCCCN)NC(=O)[C@H](CO)NC(=O)[C@H](Cc1ccc(O)cc1)NC(=O)[C@H](CC(=O)O)NC(=O)[C@H](CO)NC(=O)[C@@H](NC(=O)[C@H](Cc1ccccc1)NC(=O)[C@@H](NC(=O)CNC(=O)[C@H](CCC(N)=O)NC(=O)[C@H](CO)NC(=O)[C@@H](N)Cc1c[nH]cn1)[C@@H](C)O)[C@@H](C)O)C(C)C)C(C)C)[C@@H](C)CC)C(N)=O
# B10: G380 (peptide)
# peptide: HGQGTFTSDYSKYLDSKRAQDFVQWLVAGG
# modifications: X17 = K(gE-palm); C-terminal amide
# Columns and labels:
# Human GlucR = Human GlucR (Homo sapiens, UniProt P47871); conditions: read-out: hGlucR EC50; assay 1; additional peptides (Table 4)
# Chain of Human GlucR (P47871 26-477): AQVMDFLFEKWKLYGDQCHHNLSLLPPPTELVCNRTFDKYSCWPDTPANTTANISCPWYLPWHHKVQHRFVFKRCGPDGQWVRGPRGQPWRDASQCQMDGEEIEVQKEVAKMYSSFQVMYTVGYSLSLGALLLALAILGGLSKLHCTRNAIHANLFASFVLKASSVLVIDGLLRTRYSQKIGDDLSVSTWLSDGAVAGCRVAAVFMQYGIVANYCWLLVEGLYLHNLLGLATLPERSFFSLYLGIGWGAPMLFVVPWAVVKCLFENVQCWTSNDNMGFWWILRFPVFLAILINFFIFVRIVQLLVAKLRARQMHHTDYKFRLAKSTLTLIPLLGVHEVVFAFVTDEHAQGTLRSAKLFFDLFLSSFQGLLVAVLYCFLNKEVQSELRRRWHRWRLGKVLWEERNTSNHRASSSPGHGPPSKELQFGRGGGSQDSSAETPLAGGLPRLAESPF
# Method: All sample dilutions were made in duplicate.
# A frozen cryo-vial of cells expressing the receptor of interest was thawed rapidly in a water-bath, transferred to pre-warmed assay media and spun at 240×g for 5 minutes. Cells were re-suspended in assay media at an optimised concentration (e.g. hGCGR cells at 1×10^5 cells/ml, hGLP-1R and hGIPR cells at 0.5×10^5 cells/ml).
# To this, 5 μL cell suspension was added and the plates incubated at room temperature for 30 minutes.
# cAMP levels were measured using a commercially available cAMP dynamic 2 HTRF kit (Cisbio, Cat #62AM4PEJ), following the two step protocol as per manufacturer's recommendations. In brief; anti-cAMP cryptate (donor fluorophore) and cAMP-d2 (acceptor fluorophore) were made up separately by diluting each 1/20 in conjugate & lysis buffer provided in the kit. 5 μL anti-cAMP cryptate was added to all wells of the assay plate, and 5 μL cAMP-d2 added to all wells except non-specific binding (NSB) wells, to which conjugate and lysis buffer was added.
# [1] = frozen blank plasma from rat; conditions: 37° C, up to 48 hours
# human GLP-1 receptor [2] = molecular target: T3, human GLP-1 receptor (human, UniProt P43220 24-463); assay: cell-based or functional assay
# mouse GLP-1 receptor = molecular target: T1, mouse GLP-1 receptor; assay: cell-based or functional assay
# [3] = molecular target: T2, human glucose-dependent insulinotropic …; assay: cell-based or functional assay
# human glucagon receptor [4] = molecular target: T4, human glucagon receptor (human, UniProt P47871 26-477); assay: cell-based or functional assay
# T4 sequence (P47871 26-477): as above
# human GLP-1 receptor [5] = molecular target: T3, human GLP-1 receptor; assay: cell-based or functional assay; remark: listed apart in the source
# human glucagon receptor [6] = molecular target: T4, human glucagon receptor; assay: cell-based or functional assay; remark: listed apart in the source
# [7] = molecular target: T2, human glucose-dependent insulinotropic …; assay: cell-based or functional assay; remark: listed apart in the source
# [8] = molecular target: T2, human glucose-dependent insulinotropic …; assay: cell-based or functional assay; remark: listed apart in the source
# human serum albumin = human serum albumin (Homo sapiens, UniProt P02768); assay: calculated from the variation in cAMP generation with the HSA concentration (assay 2)
# Chain of human serum albumin (P02768 25-609 limits assumed): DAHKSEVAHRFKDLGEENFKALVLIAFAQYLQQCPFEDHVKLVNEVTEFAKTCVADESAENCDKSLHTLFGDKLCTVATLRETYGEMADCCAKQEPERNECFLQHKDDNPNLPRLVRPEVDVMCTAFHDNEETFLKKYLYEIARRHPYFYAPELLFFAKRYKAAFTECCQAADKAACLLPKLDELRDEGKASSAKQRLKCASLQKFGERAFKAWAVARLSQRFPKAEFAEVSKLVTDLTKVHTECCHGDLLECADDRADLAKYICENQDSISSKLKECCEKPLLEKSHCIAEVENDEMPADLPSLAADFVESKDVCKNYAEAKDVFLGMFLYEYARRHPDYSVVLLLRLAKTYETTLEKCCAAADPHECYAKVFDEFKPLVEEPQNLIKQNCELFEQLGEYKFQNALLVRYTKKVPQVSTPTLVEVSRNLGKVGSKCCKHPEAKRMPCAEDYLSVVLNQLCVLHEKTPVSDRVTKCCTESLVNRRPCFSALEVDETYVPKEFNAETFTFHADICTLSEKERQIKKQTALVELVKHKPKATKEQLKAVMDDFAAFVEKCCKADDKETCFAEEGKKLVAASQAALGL
# human glucagon receptor [9] = molecular target: T4, human glucagon receptor; assay: cell-based or functional assay; remark: listed apart in the source
# mouse glucagon receptor = mouse glucagon receptor (mouse, UniProt Q61606 27-485); assay: cell-based or functional assay
# Chain of mouse glucagon receptor (Q61606 27-485): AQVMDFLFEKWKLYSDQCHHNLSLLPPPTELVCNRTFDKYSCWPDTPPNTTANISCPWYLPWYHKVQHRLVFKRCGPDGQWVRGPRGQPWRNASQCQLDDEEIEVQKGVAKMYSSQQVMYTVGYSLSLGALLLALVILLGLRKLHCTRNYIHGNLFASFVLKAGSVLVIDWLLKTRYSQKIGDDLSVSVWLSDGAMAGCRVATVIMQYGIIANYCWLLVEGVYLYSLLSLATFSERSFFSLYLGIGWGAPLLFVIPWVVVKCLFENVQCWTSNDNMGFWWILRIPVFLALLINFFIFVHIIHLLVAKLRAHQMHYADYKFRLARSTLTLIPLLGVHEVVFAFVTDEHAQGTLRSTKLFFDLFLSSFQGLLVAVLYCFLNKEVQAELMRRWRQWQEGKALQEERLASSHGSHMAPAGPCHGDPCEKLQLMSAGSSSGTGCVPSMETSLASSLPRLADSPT
# human GLP-1 receptor [10] = molecular target: T3, human GLP-1 receptor; assay: cell-based or functional assay; remark: listed apart in the source
# human glucagon receptor [11] = molecular target: T4, human glucagon receptor; assay: cell-based or functional assay; remark: listed apart in the source
# human GLP-1 receptor [12] = molecular target: T3, human GLP-1 receptor; assay: cell-based or functional assay; remark: listed apart in the source
molecule,measurement,setting,value
CCCCCCCCCCCCCCCC(=O)N[C@@H](CCC(=O)NCCCC[C@H](NC(=O)[C@H](CO)NC(=O)[C@H](CC(=O)O)NC(=O)[C@H](CC(C)C)NC(=O)[C@H](Cc1ccc(O)cc1)NC(=O)[C@H](CCCCN)NC(=O)[C@H](CO)NC(=O)[C@H](Cc1ccc(O)cc1)NC(=O)[C@H](CC(=O)O)NC(=O)[C@H](CO)NC(=O)[C@@H](NC(=O)[C@H](Cc1ccccc1)NC(=O)[C@@H](NC(=O)CNC(=O)[C@H](CCC(N)=O)NC(=O)CNC(=O)[C@@H](N)Cc1c[nH]cn1)[C@@H](C)O)[C@@H](C)O)C(=O)N[C@@H](CCCNC(=N)N)C(=O)N[C@@H](C)C(=O)N[C@@H](C)C(=O)N[C@@H](CC(=O)O)C(=O)N[C@@H](Cc1ccccc1)C(=O)N[C@H](C(=O)N[C@@H](C)C(=O)N[C@@H](Cc1c[nH]c2ccccc12)C(=O)N[C@@H](CC(C)C)C(=O)N[C@H](C(=O)N[C@@H](C)C(=O)NCC(=O)NCC(N)=O)C(C)C)C(C)C)C(=O)O [g736] (H-HGQGTFTSDYSKYLDSK([γGlu-Palmitoyl])RAADFVAWLVAGG-NH2; N-terminus assumed),EC50,Human GlucR,0.92 nM
CC(C)C[C@H](NC(=O)[C@H](Cc1ccc(O)cc1)NC(=O)[C@H](CCCCN)NC(=O)[C@H](CO)NC(=O)[C@H](Cc1ccc(O)cc1)NC(=O)[C@H](CC(=O)O)NC(=O)[C@H](CO)NC(=O)[C@@H](NC(=O)[C@H](Cc1ccccc1)NC(=O)[C@@H](NC(=O)CNC(=O)[C@H](CCC(N)=O)NC(=O)[C@H](CO)NC(=O)[C@@H](N)Cc1c[nH]cn1)[C@@H](C)O)[C@@H](C)O)C(=O)N[C@@H](CC(=O)O)C(=O)N[C@@H](CO)C(=O)N[C@@H](CCCNC(=N)N)C(=O)N[C@@H](CCCNC(=N)N)C(=O)N[C@@H](C)C(=O)N[C@@H](CCC(N)=O)C(=O)N[C@@H](CC(=O)O)C(=O)N[C@@H](Cc1ccccc1)C(=O)N[C@H](C(=O)N[C@@H](CCC(N)=O)C(=O)N[C@@H](Cc1c[nH]c2ccccc12)C(=O)N[C@@H](CC(C)C)C(=O)N[C@H](C(=O)N[C@@H](C)C(=O)NCC(=O)NCC(=O)N1CCC[C@H]1C(=O)N[C@@H](CO)C(=O)N[C@@H](CO)C(=O)NCC(=O)N[C@@H](C)C(=O)N1CCC[C@H]1C(=O)N1CCC[C@H]1C(=O)N1CCC[C@H]1C(=O)N[C@@H](CO)C(=O)N[C@@H](CCCCN)C(N)=O)C(C)C)C(C)C [g319] (H-HSQGTFTSDYSKYLDSRRAQDFVQWLVAGGPSSGAPPPSK-NH2; N-terminus assumed),EC50,Human GlucR,0.0104 nM
HSQGTFTSDXSRYLDSRSARDFVAWLEAGG-amide X10 = K(gE-palm),fragment found,[1],DPP IV-cleavage product
B1,cAMP EC50 (assay 1),human GLP-1 receptor [2],14 pM
same,"cAMP EC50 (assay 2, 3.2% mouse serum albumin)",mouse GLP-1 receptor,130 pM
same,cAMP EC50 (assay 1),[3],14 nM
B2,cAMP EC50 (assay 1),human glucagon receptor [4],17.8 pM
same,cAMP EC50 (assay 1),human GLP-1 receptor [5],130 pM
B3,cAMP EC50 (assay 1),human glucagon receptor [6],27.9 pM
same,cAMP EC50 (assay 1),[7],6.41 nM
same,cAMP EC50 (assay 1),human GLP-1 receptor [2],27.2 pM
B4,cAMP EC50 (assay 1),human glucagon receptor [4],8.9 pM
same,cAMP EC50 (assay 1),[8],47 nM
same,cAMP EC50 (assay 1),human GLP-1 receptor [5],12 pM
B5,cAMP EC50 (assay 1),human glucagon receptor [6],2.32 pM
same,cAMP EC50 (assay 1),[7],12.8 nM
same,cAMP EC50 (assay 1),human GLP-1 receptor [2],19.3 pM
B6,cAMP EC50 (assay 1),human GLP-1 receptor [2],9.07 pM
same,free peptide at 4.4% HSA,human serum albumin,0.48%
same,cAMP EC50 (assay 1),[3],17 nM
B7,"cAMP EC50 (assay 2, 3.2% mouse serum albumin)",mouse GLP-1 receptor,130 pM
B8,cAMP EC50 (assay 1),human glucagon receptor [4],6.3 pM
same,cAMP EC50 (assay 1),[8],3.6 nM
same,cAMP EC50 (assay 1),human GLP-1 receptor [5],18 pM
B9,cAMP EC50 (assay 1),human glucagon receptor [6],3.55 pM
same,cAMP EC50 (assay 1),[7],1.72 nM
same,cAMP EC50 (assay 1),human GLP-1 receptor [2],10.6 pM
B10,cAMP EC50 (assay 1),human glucagon receptor [6],362 pM
same,cAMP EC50 (assay 1),[7],609 nM
same,cAMP EC50 (assay 1),human GLP-1 receptor [2],100 pM
same,"cAMP EC50 (assay 2, 4.4% human serum albumin)",human glucagon receptor [9],53.6 nM
same,"cAMP EC50 (assay 2, 3.2% mouse serum albumin)",mouse glucagon receptor,576 nM
same,"cAMP EC50 (assay 2, 3.2% mouse serum albumin)",mouse GLP-1 receptor,15000 pM
same,"cAMP EC50 (assay 2, 4.4% human serum albumin)",human GLP-1 receptor [10],6.54 nM
same,cAMP EC50 (assay 1),human glucagon receptor [11],217 pM
same,cAMP EC50 (assay 1),[3],130 nM
same,cAMP EC50 (assay 1),human GLP-1 receptor [12],77 pM
